This assay concerns the target EphB4 Fc (UniProt P54761).

Sequence of EphB4 Fc (P54761 16-539): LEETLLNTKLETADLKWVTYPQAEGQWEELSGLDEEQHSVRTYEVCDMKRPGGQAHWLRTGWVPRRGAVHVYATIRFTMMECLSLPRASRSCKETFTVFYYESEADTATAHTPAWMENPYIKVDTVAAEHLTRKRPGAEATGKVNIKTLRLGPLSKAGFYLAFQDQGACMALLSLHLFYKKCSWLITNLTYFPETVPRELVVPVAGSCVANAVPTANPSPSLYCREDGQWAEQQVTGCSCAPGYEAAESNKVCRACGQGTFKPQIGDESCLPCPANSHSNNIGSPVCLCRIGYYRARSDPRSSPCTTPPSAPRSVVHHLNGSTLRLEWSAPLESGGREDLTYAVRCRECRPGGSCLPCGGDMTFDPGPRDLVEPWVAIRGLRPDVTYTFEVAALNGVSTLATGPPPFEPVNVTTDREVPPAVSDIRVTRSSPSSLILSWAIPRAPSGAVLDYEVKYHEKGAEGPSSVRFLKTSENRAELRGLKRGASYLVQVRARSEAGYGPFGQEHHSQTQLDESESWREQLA

The substance “PEGylated TNYL-RAW (PEG-TNYL-RAW) (peptide)” had an inhibition of ephrin-B2 Fc-induced tyrosine phosphorylation of endogenous EphB4 in B16 melanoma cells (blocks EphB4 with ephrin-B2); 2 µM peptide reduce phosphorylation to undetectable levels of 90 nM.
